Results: patent US20140058068A1 (UNIVERSITY OF MIAMI, published 2014)
Square brackets hold non-standard residues; d marks the D form. Ends that are not written are not given here. * marks the point of attachment. Desaminotyrosyl = O=C(CCc1ccc(O)cc1)*; NMeY = CN[C@@H](Cc1ccc(O)cc1)C(=O)O; Nle = CCCC[C@H](N)C(=O)O; Orn = NCCC[C@H](N)C(=O)O; Abu = CC[C@H](N)C(=O)O; Aoc = NCCCCCCCC(=O)O; Ava = NCCCCC(=O)O

T1: GHRH receptor of human pituitary membrane homogenates (human, UniProt Q02643 23-423)
T1 construct: whole, on cells; Native receptor in pituitary membrane homogenates, not intact cells; also called hGH-RH receptor
T1 sequence (looked up): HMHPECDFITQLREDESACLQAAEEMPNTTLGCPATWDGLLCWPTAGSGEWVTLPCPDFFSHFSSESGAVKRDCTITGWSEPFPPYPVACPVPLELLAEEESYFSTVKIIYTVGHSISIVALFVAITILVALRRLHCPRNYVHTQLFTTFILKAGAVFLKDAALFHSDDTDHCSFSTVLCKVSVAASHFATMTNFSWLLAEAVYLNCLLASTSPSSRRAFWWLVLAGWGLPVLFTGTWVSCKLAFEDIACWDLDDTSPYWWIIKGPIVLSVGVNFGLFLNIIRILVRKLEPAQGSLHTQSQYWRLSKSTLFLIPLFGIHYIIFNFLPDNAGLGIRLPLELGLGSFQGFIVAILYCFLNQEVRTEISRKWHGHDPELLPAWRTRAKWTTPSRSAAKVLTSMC

B1: [Dat^1, Gln^8, His^11, Orn^12, Abu^15, His^20, Orn^21, Nle^27, Asp^28]hGH-RH(1-29)NH-CH3 (peptide)
peptide: [Desaminotyrosyl]ADAIFTQSYH[Orn]VL[Abu]QLSAH[Orn]LLQDI[Nle]DR-NHMe
SMILES: CCCC[C@H](NC(=O)[C@@H](NC(=O)[C@H](CC(=O)O)NC(=O)[C@H](CCC(N)=O)NC(=O)[C@H](CC(C)C)NC(=O)[C@H](CC(C)C)NC(=O)[C@H](CCCN)NC(=O)[C@H](Cc1c[nH]cn1)NC(=O)[C@H](C)NC(=O)[C@H](CO)NC(=O)[C@H](CC(C)C)NC(=O)[C@H](CCC(N)=O)NC(=O)[C@H](CC)NC(=O)[C@H](CC(C)C)NC(=O)[C@@H](NC(=O)[C@H](CCCN)NC(=O)[C@H](Cc1c[nH]cn1)NC(=O)[C@H](Cc1ccc(O)cc1)NC(=O)[C@H](CO)NC(=O)[C@H](CCC(N)=O)NC(=O)[C@@H](NC(=O)[C@H](Cc1ccccc1)NC(=O)[C@@H](NC(=O)[C@H](C)NC(=O)[C@H](CC(=O)O)NC(=O)[C@H](C)NC(=O)CCc1ccc(O)cc1)[C@@H](C)CC)[C@@H](C)O)C(C)C)[C@@H](C)CC)C(=O)N[C@@H](CC(=O)O)C(=O)N[C@@H](CCCNC(=N)N)C(=O)NC
notes: also called Peptide 27413
B2: [N-Me-Tyr^1, D-Ala^2, Orn^12, Abu^15, Orn^21, Nle^27, Asp^28, Amc^30]hGH-RH(1-30)NH2 (peptide)
chain: [NMeY][dA]DAIFTNSYR[Orn]VL[Abu]QLSAR[Orn]LLQDI[Nle]DR[Aoc]-NH2
modifications: N-terminus assumed
SMILES: CCCC[C@H](NC(=O)[C@@H](NC(=O)[C@H](CC(=O)O)NC(=O)[C@H](CCC(N)=O)NC(=O)[C@H](CC(C)C)NC(=O)[C@H](CC(C)C)NC(=O)[C@H](CCCN)NC(=O)[C@H](CCCNC(=N)N)NC(=O)[C@H](C)NC(=O)[C@H](CO)NC(=O)[C@H](CC(C)C)NC(=O)[C@H](CCC(N)=O)NC(=O)[C@H](CC)NC(=O)[C@H](CC(C)C)NC(=O)[C@@H](NC(=O)[C@H](CCCN)NC(=O)[C@H](CCCNC(=N)N)NC(=O)[C@H](Cc1ccc(O)cc1)NC(=O)[C@H](CO)NC(=O)[C@H](CC(N)=O)NC(=O)[C@@H](NC(=O)[C@H](Cc1ccccc1)NC(=O)[C@@H](NC(=O)[C@H](C)NC(=O)[C@H](CC(=O)O)NC(=O)[C@@H](C)NC(=O)[C@H](Cc1ccc(O)cc1)NC)[C@@H](C)CC)[C@@H](C)O)C(C)C)[C@@H](C)CC)C(=O)N[C@@H](CC(=O)O)C(=O)N[C@@H](CCCNC(=N)N)C(=O)NCCCCCCCC(N)=O
B3: [Dat^1, D-Ala^2, Orn^12, Abu^15, Orn^21, Nle^27, Asp^28, Amc^30]hGH-RH(1-30)NH2 (peptide)
peptide: [Desaminotyrosyl][dA]DAIFTNSYR[Orn]VL[Abu]QLSAR[Orn]LLQDI[Nle]DR[Aoc]-NH2
SMILES: CCCC[C@H](NC(=O)[C@@H](NC(=O)[C@H](CC(=O)O)NC(=O)[C@H](CCC(N)=O)NC(=O)[C@H](CC(C)C)NC(=O)[C@H](CC(C)C)NC(=O)[C@H](CCCN)NC(=O)[C@H](CCCNC(=N)N)NC(=O)[C@H](C)NC(=O)[C@H](CO)NC(=O)[C@H](CC(C)C)NC(=O)[C@H](CCC(N)=O)NC(=O)[C@H](CC)NC(=O)[C@H](CC(C)C)NC(=O)[C@@H](NC(=O)[C@H](CCCN)NC(=O)[C@H](CCCNC(=N)N)NC(=O)[C@H](Cc1ccc(O)cc1)NC(=O)[C@H](CO)NC(=O)[C@H](CC(N)=O)NC(=O)[C@@H](NC(=O)[C@H](Cc1ccccc1)NC(=O)[C@@H](NC(=O)[C@H](C)NC(=O)[C@H](CC(=O)O)NC(=O)[C@@H](C)NC(=O)CCc1ccc(O)cc1)[C@@H](C)CC)[C@@H](C)O)C(C)C)[C@@H](C)CC)C(=O)N[C@@H](CC(=O)O)C(=O)N[C@@H](CCCNC(=N)N)C(=O)NCCCCCCCC(N)=O
notes: also called Peptide 21300
B4: [Dat^1, Gln^8, Orn^12, Abu^15, Orn^21, Nle^27, Asp^28]hGH-RH(1-29)NH-CH3 (peptide)
peptide: [Desaminotyrosyl]ADAIFTQSYR[Orn]VL[Abu]QLSAR[Orn]LLQDI[Nle]DR-NHMe
SMILES: CCCC[C@H](NC(=O)[C@@H](NC(=O)[C@H](CC(=O)O)NC(=O)[C@H](CCC(N)=O)NC(=O)[C@H](CC(C)C)NC(=O)[C@H](CC(C)C)NC(=O)[C@H](CCCN)NC(=O)[C@H](CCCNC(=N)N)NC(=O)[C@H](C)NC(=O)[C@H](CO)NC(=O)[C@H](CC(C)C)NC(=O)[C@H](CCC(N)=O)NC(=O)[C@H](CC)NC(=O)[C@H](CC(C)C)NC(=O)[C@@H](NC(=O)[C@H](CCCN)NC(=O)[C@H](CCCNC(=N)N)NC(=O)[C@H](Cc1ccc(O)cc1)NC(=O)[C@H](CO)NC(=O)[C@H](CCC(N)=O)NC(=O)[C@@H](NC(=O)[C@H](Cc1ccccc1)NC(=O)[C@@H](NC(=O)[C@H](C)NC(=O)[C@H](CC(=O)O)NC(=O)[C@H](C)NC(=O)CCc1ccc(O)cc1)[C@@H](C)CC)[C@@H](C)O)C(C)C)[C@@H](C)CC)C(=O)N[C@@H](CC(=O)O)C(=O)N[C@@H](CCCNC(=N)N)C(=O)NC
notes: also called Peptide 27407
B5: [N-Me-Tyr^1, Orn^12, Abu^15, Orn^21, Nle^27, Asp^28, Amc^30]hGH-RH(1-30)NH2 (peptide)
peptide: [NMeY]ADAIFTNSYR[Orn]VL[Abu]QLSAR[Orn]LLQDI[Nle]DR[Aoc]-NH2
modifications: N-terminus assumed
SMILES: CCCC[C@H](NC(=O)[C@@H](NC(=O)[C@H](CC(=O)O)NC(=O)[C@H](CCC(N)=O)NC(=O)[C@H](CC(C)C)NC(=O)[C@H](CC(C)C)NC(=O)[C@H](CCCN)NC(=O)[C@H](CCCNC(=N)N)NC(=O)[C@H](C)NC(=O)[C@H](CO)NC(=O)[C@H](CC(C)C)NC(=O)[C@H](CCC(N)=O)NC(=O)[C@H](CC)NC(=O)[C@H](CC(C)C)NC(=O)[C@@H](NC(=O)[C@H](CCCN)NC(=O)[C@H](CCCNC(=N)N)NC(=O)[C@H](Cc1ccc(O)cc1)NC(=O)[C@H](CO)NC(=O)[C@H](CC(N)=O)NC(=O)[C@@H](NC(=O)[C@H](Cc1ccccc1)NC(=O)[C@@H](NC(=O)[C@H](C)NC(=O)[C@H](CC(=O)O)NC(=O)[C@H](C)NC(=O)[C@H](Cc1ccc(O)cc1)NC)[C@@H](C)CC)[C@@H](C)O)C(C)C)[C@@H](C)CC)C(=O)N[C@@H](CC(=O)O)C(=O)N[C@@H](CCCNC(=N)N)C(=O)NCCCCCCCC(N)=O
notes: also called Peptide 21301
B6: [Dat^1, Gln^8, Orn^12, Abu^15, Orn^21, Nle^27, Asp^28, Apa^30]hGH-RH(1-30)NH2 (peptide)
peptide: [Desaminotyrosyl]ADAIFTQSYR[Orn]VL[Abu]QLSAR[Orn]LLQDI[Nle]DR[Ava]-NH2
SMILES: CCCC[C@H](NC(=O)[C@@H](NC(=O)[C@H](CC(=O)O)NC(=O)[C@H](CCC(N)=O)NC(=O)[C@H](CC(C)C)NC(=O)[C@H](CC(C)C)NC(=O)[C@H](CCCN)NC(=O)[C@H](CCCNC(=N)N)NC(=O)[C@H](C)NC(=O)[C@H](CO)NC(=O)[C@H](CC(C)C)NC(=O)[C@H](CCC(N)=O)NC(=O)[C@H](CC)NC(=O)[C@H](CC(C)C)NC(=O)[C@@H](NC(=O)[C@H](CCCN)NC(=O)[C@H](CCCNC(=N)N)NC(=O)[C@H](Cc1ccc(O)cc1)NC(=O)[C@H](CO)NC(=O)[C@H](CCC(N)=O)NC(=O)[C@@H](NC(=O)[C@H](Cc1ccccc1)NC(=O)[C@@H](NC(=O)[C@H](C)NC(=O)[C@H](CC(=O)O)NC(=O)[C@H](C)NC(=O)CCc1ccc(O)cc1)[C@@H](C)CC)[C@@H](C)O)C(C)C)[C@@H](C)CC)C(=O)N[C@@H](CC(=O)O)C(=O)N[C@@H](CCCNC(=N)N)C(=O)NCCCCC(N)=O
notes: also called Peptide 22327
B7: [Dat^1, D-Ala^2, Orn^12, Abu^15, Orn^21, Nle^27, Asp^28]hGH-RH(1-29)NH-CH3 (peptide)
peptide: [Desaminotyrosyl][dA]DAIFTNSYR[Orn]VL[Abu]QLSAR[Orn]LLQDI[Nle]DR-NHMe
SMILES: CCCC[C@H](NC(=O)[C@@H](NC(=O)[C@H](CC(=O)O)NC(=O)[C@H](CCC(N)=O)NC(=O)[C@H](CC(C)C)NC(=O)[C@H](CC(C)C)NC(=O)[C@H](CCCN)NC(=O)[C@H](CCCNC(=N)N)NC(=O)[C@H](C)NC(=O)[C@H](CO)NC(=O)[C@H](CC(C)C)NC(=O)[C@H](CCC(N)=O)NC(=O)[C@H](CC)NC(=O)[C@H](CC(C)C)NC(=O)[C@@H](NC(=O)[C@H](CCCN)NC(=O)[C@H](CCCNC(=N)N)NC(=O)[C@H](Cc1ccc(O)cc1)NC(=O)[C@H](CO)NC(=O)[C@H](CC(N)=O)NC(=O)[C@@H](NC(=O)[C@H](Cc1ccccc1)NC(=O)[C@@H](NC(=O)[C@H](C)NC(=O)[C@H](CC(=O)O)NC(=O)[C@@H](C)NC(=O)CCc1ccc(O)cc1)[C@@H](C)CC)[C@@H](C)O)C(C)C)[C@@H](C)CC)C(=O)N[C@@H](CC(=O)O)C(=O)N[C@@H](CCCNC(=N)N)C(=O)NC

What follows are binders tested against T1, GHRH receptor of human pituitary … (assay: radioligand competition, 125I-JV-1-42 (~0.2 nM) as competitor, human pituitary membrane homogenates).
From the text: Normal human pituitaries were purchased from the National Hormone and Peptide Program (A. F. Parlow, Los Angeles, County Harbor-UCLA Medical Center, Torrance, Calif.).

Row | IC50 [nM] | Relative affinity (Binding potency) vs JI-38 | Binder
1 | 0.3 | 14.5 fold, JI-38 = 1 | [NMeY]ADAIFTQSYR[Orn]VL[Abu]QLSAR[Orn]LLQDI[Nle]DR-NHMe (also called Peptide 27406) [[N-Me-Tyr^1, Gln^8, Orn^12, Abu^15, Orn^21, Nle^27, Asp^28]hGH-RH(1-29)NH-CH3]
2 | 1.08 | 4.03 fold, JI-38 = 1 | [NMeY]ADAIFTQSYR[Orn]VL[Abu]QLSAR[Orn]LLQDI[Nle]SR-NHMe [[N-Me-Tyr^1, Gln^8, Orn^12, Abu^15, Orn^21, Nle^27]hGH-RH(1-29)NH-CH3]
3 | 2.45 | 1.78 fold, JI-38 = 1 | B1
4 | 0.83 | 5.24 fold, JI-38 = 1 | [NMeY][dA]DAIFTTSYR[Orn]VL[Abu]QLSAR[Orn]LLQDI[Nle]DR-NHMe [[N-Me-Tyr^1, D-Ala^2, Thr^8, Orn^12, Abu^15, Orn^21, Nle^27, Asp^28]hGH-RH(1-29)NH-CH3]
5 | 1.87 | 2.32 fold, JI-38 = 1 | B2
6 | 3.61 | 1.2 fold, JI-38 = 1 | B3
7 | – | 8.37 fold, JI-38 = 1 | [NMeY][dA]DAIFTQSYR[Orn]VL[Abu]QLSAR[Orn]LLQDI[Nle]DR-NHEt (also called Peptide 28420) [[N-Me-Tyr^1, D-Ala^2, Gln^8, Orn^12, Abu^15, Orn^21, Nle^27, Asp^28]hGH-RH(1-29)NH-CH2-CH3]
8 | 3 | 1.45 fold, JI-38 = 1 | B4
9 | 2.99 | 1.45 fold, JI-38 = 1 | B5
10 | 1.99 | 2.18 fold, JI-38 = 1 | B6
11 | 3.8 | 1.14 fold, JI-38 = 1 | [NMeY]ADAIFTQSYR[Orn]VL[Abu]QLSAR[Orn]LLQDI[Nle]DR[Ava]-NH2 (also called Peptide 22325) [[N-Me-Tyr^1, Gln^8, Orn^12, Abu^15, Orn^21, Nle^27, Asp^28, Apa^30]hGH-RH(1-30)NH2]
12 | 3.35 | 1.3 fold, JI-38 = 1 | B7
